# Reference: patent US20140322218A1 (Amgen, published 2014)
# Where a chain is given by its changes, count along the chain named. In names and notes the source's numbering stands.
# T1: ckCDH19(1-43)::FLAG::ckCDH19(44-141)::huCDH19(142-249)::ckCDH19(250-776), on 293T cells (human/chicken chimera)
# T1 construct: Entry holds leader (1-43), Flag tag and CDH19 part; leader left out; also called Hu EC2 (chicken backbone)
# T1 chain: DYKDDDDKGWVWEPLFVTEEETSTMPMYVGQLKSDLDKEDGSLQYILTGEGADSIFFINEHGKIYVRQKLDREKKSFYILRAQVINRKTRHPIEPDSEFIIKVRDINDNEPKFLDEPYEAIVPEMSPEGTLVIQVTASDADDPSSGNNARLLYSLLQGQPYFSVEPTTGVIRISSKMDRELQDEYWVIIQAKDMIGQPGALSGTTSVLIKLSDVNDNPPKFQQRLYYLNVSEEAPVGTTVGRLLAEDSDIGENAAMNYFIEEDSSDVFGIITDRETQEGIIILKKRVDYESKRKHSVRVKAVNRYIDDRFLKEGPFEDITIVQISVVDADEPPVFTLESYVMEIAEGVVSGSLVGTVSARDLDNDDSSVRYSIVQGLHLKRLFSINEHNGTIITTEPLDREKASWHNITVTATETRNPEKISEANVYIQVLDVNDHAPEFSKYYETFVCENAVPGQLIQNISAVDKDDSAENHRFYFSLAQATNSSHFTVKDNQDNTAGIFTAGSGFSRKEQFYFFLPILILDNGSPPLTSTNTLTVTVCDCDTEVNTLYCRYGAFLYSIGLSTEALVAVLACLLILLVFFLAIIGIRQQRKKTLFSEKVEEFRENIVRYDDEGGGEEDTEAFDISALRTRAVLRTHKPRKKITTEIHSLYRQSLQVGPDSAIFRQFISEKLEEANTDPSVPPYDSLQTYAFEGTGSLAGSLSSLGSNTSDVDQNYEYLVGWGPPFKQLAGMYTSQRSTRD
# T2: ckCDH19(1-43)::FLAG::ckCDH19(44-776), on 293T cells (chicken)
# T2 construct: Entry holds leader (1-43), Flag tag and CDH19 part; leader left out; also called Ck EC1-5
# T2 chain: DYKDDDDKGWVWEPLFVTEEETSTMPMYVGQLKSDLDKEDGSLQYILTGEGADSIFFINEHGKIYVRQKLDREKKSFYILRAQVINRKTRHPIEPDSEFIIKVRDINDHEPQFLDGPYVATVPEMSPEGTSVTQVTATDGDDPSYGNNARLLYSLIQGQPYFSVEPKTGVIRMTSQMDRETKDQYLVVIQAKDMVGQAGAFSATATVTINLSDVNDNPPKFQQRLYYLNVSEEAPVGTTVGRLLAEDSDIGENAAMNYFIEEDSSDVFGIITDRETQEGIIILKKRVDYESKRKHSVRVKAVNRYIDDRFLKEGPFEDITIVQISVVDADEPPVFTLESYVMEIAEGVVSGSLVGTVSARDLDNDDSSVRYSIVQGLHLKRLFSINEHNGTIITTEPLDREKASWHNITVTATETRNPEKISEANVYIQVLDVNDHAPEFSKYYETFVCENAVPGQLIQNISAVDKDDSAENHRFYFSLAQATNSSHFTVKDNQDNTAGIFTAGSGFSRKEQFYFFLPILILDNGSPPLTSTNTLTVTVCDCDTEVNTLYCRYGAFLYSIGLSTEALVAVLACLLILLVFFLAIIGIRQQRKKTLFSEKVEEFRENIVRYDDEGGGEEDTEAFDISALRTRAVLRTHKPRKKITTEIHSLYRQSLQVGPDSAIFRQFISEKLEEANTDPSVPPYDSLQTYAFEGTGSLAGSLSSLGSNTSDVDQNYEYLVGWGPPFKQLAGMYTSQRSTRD
# T3: muCDH19(44-770), Flag-tagged, on 293T cells (mouse)
# T3 construct: also called Mu EC1-5
# T3 chain: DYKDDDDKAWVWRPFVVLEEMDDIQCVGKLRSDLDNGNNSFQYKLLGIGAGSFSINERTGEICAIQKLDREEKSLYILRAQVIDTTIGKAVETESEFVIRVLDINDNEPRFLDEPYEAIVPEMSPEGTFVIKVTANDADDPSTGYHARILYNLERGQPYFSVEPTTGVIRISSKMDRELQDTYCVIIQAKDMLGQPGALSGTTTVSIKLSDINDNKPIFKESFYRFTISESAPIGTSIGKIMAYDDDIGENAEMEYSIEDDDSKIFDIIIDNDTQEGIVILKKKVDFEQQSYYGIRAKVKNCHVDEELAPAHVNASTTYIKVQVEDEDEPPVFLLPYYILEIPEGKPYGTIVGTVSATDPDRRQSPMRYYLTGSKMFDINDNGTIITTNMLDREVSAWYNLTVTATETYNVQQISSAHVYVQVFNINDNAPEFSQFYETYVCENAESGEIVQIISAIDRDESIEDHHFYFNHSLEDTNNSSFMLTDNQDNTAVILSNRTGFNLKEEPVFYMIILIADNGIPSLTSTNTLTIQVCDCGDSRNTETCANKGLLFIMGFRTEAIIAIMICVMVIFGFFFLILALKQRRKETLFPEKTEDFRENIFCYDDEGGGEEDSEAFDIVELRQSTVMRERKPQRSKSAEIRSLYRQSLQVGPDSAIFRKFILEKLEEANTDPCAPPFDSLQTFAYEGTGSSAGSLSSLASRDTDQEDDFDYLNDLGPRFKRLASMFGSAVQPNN
# B1: anti-CDH19 antibody 2G6 (Ab ID 13588) (antibody, human IgG1, lambda, V domains shown)
# VH: QVQLVESGGGVVQPGRSLRLSCAASGFTFSSYGMHWVRQAPGKGLEWVAFIWYDGSNKYYADSVKDRFTISRDNSKNTLYLQMKSLRAEDTAVYYCARRAGIIGTIGYYYGMDVWGQGTTVTVSS
# VL: SYELTQPPSVSVSPGQTASITCSGDRLGEKYTCWYQQRPGQSPLLVIYQDTKRPSGIPERFSGSNSGNTATLTISGTQAMDEADYYCQAWDSSTVVFGGGTKLTVLG
# B2: hu anti-<huCDH19> 26D1.1 VH::huIgG1z / 26D1.1 VL::huLLC-C2 (Ab ID 13882) (antibody, V domains shown)
# VH: QVQLVQSGAEVKKPGASVKVSCKASRYTFTSYYMSWVRQAPGQGLEWMGIIHPSGGDTTYAQKFQGRVTMTGDTSTSTVYMELSSLRSEDTAVYYCARGGIKLWLHFDYWGQGTLVTVSS
# VL: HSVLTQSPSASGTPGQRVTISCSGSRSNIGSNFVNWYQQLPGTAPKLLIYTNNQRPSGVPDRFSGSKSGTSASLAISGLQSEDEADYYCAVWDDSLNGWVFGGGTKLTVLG
# B3: hu anti-<huCDH19> 4A9 VH::huIgG1z / 4A9 VL::huLLC-C1 (Ab ID 13589) (antibody, V domains shown)
# VH: QVQLQESGPGLVKPSETLSLTCTVSGGSISGYYWSWIRQPPGKGLEWFAYFSYSGSTNYNPSLKSRVTLSVDTSKNQFSLKLSSVTAADTAVYYCARNWAFHFDFWGQGTLVTVSS
# VL: QSVLTQPPSVSGAPGQRVTISCTGSSSNIGTGYAVHWYQQFPGTAPKLLIYGNNNRPSGVPDRFSGSKSGTSASLAITGLQAEDEADYYCQSYDSRLSGWVFGGGTKLTVLG
# notes: Recombinant fully human IgG1
# B4: hu anti-<huCDH19> 4B10 VH::huIgG1z / 4B10 VL::huKLC (Ab ID 13590) (antibody, V domains shown)
# VH: QVQLVESGGGVVQPGRSLRLSCAASGFTFSSYDMHWVRQAPGKGLEWVAVISYDGTNEYYADSVKGRFTISRDTSKNTLYLQMNSLRAEDTAVYYCARERYFDWSFDYWGQGTLVSVSS
# VL: EIVLTQSPGTLSLSPGERATLSCRASQSVSNTYLAWYHQRPGQAPRLLIYGASSRATGIPDRFSGSGSGTDFALTISSLEPEDFAVYYCQQYSNSWTFGQGTKVEIKR
# B5: hu anti-<huCDH19> 23A10.3 (1-474)(L92Q) VH::huIgG1z / 23A10.3 (1-231)(C42S) VL::huLLC-C2 (Ab ID 14077) (antibody, V domains shown)
# VH: B1 VH with S31R, M34I, F50V, D66G, K84N, T91S, I103P, I106T
# VL: B1 VL with T32V, C33S, R38K, L44I, T51N, R53W
# notes: Engineered variant of 23A10
# B6: hu anti-<huCDH19> 25F8.1 (1-469)(F90Y) VH::huIgG1z / 25F8.1 (1-235)(K45Q,S102A,D111E) VL::huLLC-C2 (Ab ID 14096) (antibody, V domains shown)
# VH: B2 VH with R26G, M34I, S35H, H52N, D57S, T59R, G72R, K102Q
# VL: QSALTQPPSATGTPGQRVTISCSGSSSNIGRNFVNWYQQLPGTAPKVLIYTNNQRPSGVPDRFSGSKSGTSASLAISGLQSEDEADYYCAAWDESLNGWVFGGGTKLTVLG
# notes: Engineered variant of 25F8
# B7: anti-CDH19 antibody 4A2 (Ab ID 13592) (antibody, human IgG1, kappa, V domains shown)
# VH: QVQLQESGPGLVKPSQTLSLTCTVSGGSISSSGYYWSWIRQHPGKGLEWIGYIYYTGSAYYNPSLKSRVTISVDTSKNQFSLKLSSVTAADTAVYYCARDGSSGWYFQYWGQGTLVTVSS
# VL: EIVLTQSPGTLSLSPGERATLSCRASRNISSSYLAWYQQKPGQAPRLLIYGPSSRATGIPDRFSGSGSGTDFTLTISRLEPEDFTVYYCQQYGSSFTFGPGTKVDIKR
# Molecular target: T4, huCDH19(44-249)::muCDH19(248-770), Flag-tagged, on 293T cells (human/mouse chimera)
# T4 construct: also called Hu EC1-2; C137896
# Assay: FACS, transfected 293T
# Text: (§1) The experiment included assaying the anti-CDH19 antibodies against mouse Cadherin19 to determine suitability for binning on these human/mouse chimeras.
row,binding result,Binder
1,binds,B1
2,binds,B2
3,binds,B3

# Molecular target: T5, huCDH19(44-141)::muCDH19(140-770), Flag-tagged, on 293T cells (human/mouse chimera)
# T5 construct: also called Hu EC1
# Assay: FACS, transfected 293T
# Text: as §1
row,binding result,Binder
1,binds,B1
2,binds,B2
3,binds,B3

# Molecular target: T6, ckCDH19(1-43)::FLAG::ckCDH19(44-249)::huCDH19(250-364)::ckCDH19(365-776), on 293T cells (human/chicken chimera)
# T6 construct: Entry holds leader (1-43), Flag tag and CDH19 part; leader left out; also called Hu EC3 (chicken backbone)
# Assay: FACS, transfected 293T
# Experimental: (§2) The following binding assay was completed in presence of 2 mM CaCl2. […] Cells were then washed one time and the amount of cell associated Alexa647-labelled Ab was quantitated by flow cytometry. The experiments included mock transfected controls.
row,binding result,Binder
1,binds,B4
2,binds,B1
3,binds,B5
4,no binding (tested: 5 ug/ml),B6
5,no binding (tested: 5 ug/ml),B2
6,no binding (tested: 5 ug/ml),B3

# Molecular target: T1, ckCDH19(1-43)::FLAG::ckCDH19(44-141)::hu …
# Assay: FACS, transfected 293T
# Experimental: as §2
row,binding result,Binder
1,no binding (tested: 5 ug/ml),B4
2,no binding (tested: 5 ug/ml),B1
3,no binding (tested: 5 ug/ml),B5
4,no binding (tested: 5 ug/ml),B6
5,no binding (tested: 5 ug/ml),B2
6,no binding (tested: 5 ug/ml),B3
7,no binding (tested: 5 ug/ml),B7

# Molecular target: T2, ckCDH19(1-43)::FLAG::ckCDH19(44-776), …
# Assay: FACS, transfected 293T
# Experimental: as §2
row,binding result,Binder
1,no binding (tested: 5 ug/ml),B4
2,no binding (tested: 5 ug/ml),B1
3,no binding (tested: 5 ug/ml),B5
4,no binding (tested: 5 ug/ml),B6
5,no binding (tested: 5 ug/ml),B2
6,no binding (tested: 5 ug/ml),B3
7,no binding (tested: 5 ug/ml),B7

# Molecular target: T3, muCDH19(44-770), Flag-tagged, on 293T …
# Assay: FACS, transfected 293T
row,binding result,Binder
1,no binding (tested: 5 ug/ml),B4
2,binds,B1
3,binds,B5
4,no binding (tested: 5 ug/ml),B2
5,no binding (tested: 5 ug/ml),B3
